Source: the nanobody polyreactivity screen of Harvey et al. (2022)

test: yeast display, Sf9 membrane polyspecificity reagent, FACS + sequencing; frameworks hold sequencing errors
Method in brief: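 A nanobody's polyreactivity label depends on the gate it was sorted from. Yeast display cells were stained with 10% biotinylated, detergent-solubilized Sf9 membrane reagent for 1 hour at 4 °C, enriched on streptavidin microbeads and sorted by FACS. The low and high (top ~1%) gates were set on anti-HA fluorescence for expression and streptavidin fluorescence for reagent binding.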

Row | Sequence | polyreactivity (PSR sort gate)
1 | QVQLVESGGGLVQAGGSLRLSCAASGSIFWPYAMGWYRQAPGKERELVAGISSGGSTYYADSVKGRFTISRDNAKNTVYLQMNSLKPEDTAVYYCAARWQWLNGYYYWGQGTQVTVSS | high polyreactivity
2 | QVQLVESGGGLVQAGGSLRLSCAASGSIFWQNAMGWYRQAPGKERELVARITSGGSTNYADSVKGRFTISRDNAKNTFYLQMNSLKPEDTGVYYCNRVRYRSYFAYYYWGQGTQVTVSS | high polyreactivity
3 | QVQLVESGGGLVQAGGSLRLSCAASGSIFWRYAMGWYRQAPGKERELVAAITWSGGTSYADSVKGRFTLSRDNAKNTVYLQMNSLKQEDTAVYYCIADGLSYYLYDYWGQGTQVTVSS | low polyreactivity
4 | QVQLVESGGGLVQAGGSLRLSCAASGSIFWSYAMGWYRQAPGKERELVAAITTDGGTNYADSVKGRFTISRDNAKNTVYLQMNSLKPEDTAVYYCAARYGTSYIVRWTYYAFDYWGQGTQVTVSS | low polyreactivity
5 | QVQLVESGGGLVQAGGSLRLSCAASGSIFWSYAMGWYRQAPGKERELVASITRSGGSTYYADSVKGRFTISRDNAKNTVYLQMNSLKPEDTAVYYCNARRTTRWGSSKYEYDYWGQGTQVTVSS | high polyreactivity
6 | QVQLVESGGGLVQAGGSLRLSCAASGSIFWVNAMGWYRQAPGKERELVAAITWSAGSTYYADSVKGRFTISRDNANNTVYLQMNSLKPEDTAVYYFAAGVAWYYWTLDYWGQGTQVTVSS | low polyreactivity
7 | QVQLVESGGGLVQAGGSLRLSCAASGSIFWVYAMGWYRQAPGKERELVAAISNSGSTNYADSVKGRFTISRDNAKNTVYLQMNSLKPEDTAVYYCAKDSLVDHVGGYDYWGQGTQVTVSS | low polyreactivity
8 | QVQLVESGGGLVQAGGSLRLSCAASGSIFWWNAKGWYRQAPGKERELVAAINWSTGRTYYADSVKGRFTISRDNAKNTVYLQMNSLKPEDTAVYYCNADSKSSYYWYLWYNYWGQGTQVTVSS | low polyreactivity
9 | QVQLVESGGGLVQAGGSLRLSCAASGSIFWYAMGWYRQAPGKETELVAAISRGGSTYYADSVKGRFTISRDNAKNTVFLEMYRLKPEDTAVYYCATAYRYPRNAYFQRMDSWGQGTQVTVSS | high polyreactivity
10 | QVQLVESGGGLVQAGGSLRLSCAASGSIFWYYAMGWYRQAPGKERELVASISRRGGSTYYADSVKGRFTISRDNAKNTVYLQMNSLKPEDTAVYYCAAYSRTTCSTVQGTYDYWGQGTQVTVSA | low polyreactivity
11 | QVQLVESGGGLVQAGGSLRLSCAASGSIFWYYAMGWYRQAPGKERELVASISSGGSTTYADSVKGRFTISCDNAKNTVYLQMISLKPEDTAVYYCNADYFGGGDYWGQGTQVTVSS | low polyreactivity
12 | QVQLVESGGGLVQAGGSLRLSCAASGSIFWYYAMGWYRQAPGKERELVASITSGGSTNYADSVKGRFTISRDNAKNTVYLQMISLKPEDTAVYYCNTDDDSSSTGYYSWGQGTQVTVSS | low polyreactivity
13 | QVQLVESGGGLVQAGGSLRLSCAASGSIFYANAMGWYRQAPRKERELVAAISWSGGRTYYADSVKGRFTISRDNAKNTVYLQMISLKPEDTAVYFCAAVTRGLRFVYWGQGTQVTVSS | high polyreactivity
14 | QVQLVESGGGLVQAGGSLRLSCAASGSIFYANAMGWYSQAPGKERELVAVISSGGGTYADSVKGRFTISRDNAKNTVYLQMNSLKPEDTAVYYCAADYTRESSMYYWGQGTQVTVSS | low polyreactivity
15 | QVQLVESGGGLVQAGGSLRLSCAASGSIFYDYTMGWYRQAPGKERELVAAITSDGSTYYADSVKGRFTISRDNAKNTVYLQMKSLKPEDTAVYYCAVFSDVFLYYYGETYDYWGQGTQVTVSS | high polyreactivity
16 | QVQLVESGGGLVQAGGSLRLSCAASGSIFYFNAMGWYRQAPGKEMELVATIRSGDGRTYYADSVKGRFTISRDNAKNTVYLQMNSLKPEDTAVYYCNASRVVYRQAYLYGYDYWGQGTQVTVSS | low polyreactivity
17 | QVQLVESGGGLVQAGGSLRLSCAASGSIFYFNAMGWYRQAPGKERELVAAINSGGSTYYADSVKGRFTISRDNAKNTVYLQMNSLKPEDTAVYYCAAVKVDYYITMYYWGQGTQVTVSS | high polyreactivity
18 | QVQLVESGGGLVQAGGSLRLSCAASGSIFYFNAMGWYRQAPGKERELVASITSGGSTNYADSVKGRFTISRDNAKNTVYLQMNSLKPEDTAVYYCNKRVHYIAGRGYDYWGQGNQVTVSS | low polyreactivity
19 | QVQLVESGGGLVQAGGSLRLSCAASGSIFYFNAMGWYRQAPGKERQLVAAITSGGNTYYADSVKGRFTISRDNAKNTVYLQMNSLKPEDTAVYYCAKRGFRFPYPSLDYWGQGTQVTVSS | low polyreactivity
20 | QVQLVESGGGLVQAGGSLRLSCAASGSIFYFYAMGWYRQAPGKERELVASIRWSCGRTRYADSVKGRFTISRDNAKNTVYLQMNSLKPEDTAVYYCAARGGGRPYDYWGQGTQVTVSS | high polyreactivity
21 | QVQLVESGGGLVQAGGSLRLSCAASGSIFYFYTMGWYRQAPGKERELVAAISGGGGSTYYADSVTGRFTISRDNAKNTVYLQMNSLKPEDTAVYYCAADGAGWLDYGYWGQGTQVTVSS | low polyreactivity
22 | QVQLVESGGGLVQAGGSLRLSCAASGSIFYGNAMGWYRQAPGKERELVAAISARGGSTNYADSVKGRFTISRDNAKNTVYLQMNSLKPEDTSVYYCAADTPVWSGYWYYYWGQGTQVTVSS | low polyreactivity

Row | Sequence | polyreactivity (PSR sort gate)
23 | QVQLVESGGGLVQAGGSLRLSCAASGSIFYGNAMGWYRQAPGKERELVAAISKRGGSTYYADSVKGRFTISRDKAKNSVYLQMNSLKPEDTAVYYCAKATAGHTEYYYWGQGTQVTVSS | high polyreactivity
24 | QVQLVESGGGLVQAGGSLRLSCAASGSIFYGNAMGWYRQAPGKERELVADITWSGGSTYYADSVKGRFTISRDNAKNTVYLQMNSLKPEDTAVYYCAAKVKHWYYPYYYWGQGTQVTVSS | low polyreactivity
25 | QVQLVESGGGLVQAGGSLRLSCAASGSIFYGNAMGWYRQAPGKERELVAGISWSGGSTYYADSVKGRFTISRDNAKNTVYFQMNSLKPEDTAVYYCATVADEPRAYSGYEESDYWGQGTQVTVSS | low polyreactivity
26 | QVQLVESGGGLVQAGGSLRLSCAASGSIFYGNAMGWYRQAPGKERELVAGISWSGGSTYYADSVKGRFTISRDNAKYTVYLQMNSLKPEDTAVYYCATVADEPRAYSGYEESDYWGQGTQVTVSS | low polyreactivity
27 | QVQLVESGGGLVQAGGSLRLSCAASGSIFYGNTMGWYRQEPGKERELVAPIRSVGRTYYADSVKGRYTISRDNAKNTVYLQMYSLKPEDTAVYYCAADPRSYFTSEYWGQGTQVTVSS | high polyreactivity
28 | QVQLVESGGGLVQAGGSLRLSCAASGSIFYGYAMGWYRQAPGKEREFVAAITWSGGSTHYADSVKGRFTNSRDNAKNTVYVQMNSLKPEDTAVYYCAAPSYGNYPYRSYVWYGYWGQGTQVTVSS | high polyreactivity
29 | QVQLVESGGGLVQAGGSLRLSCAASGSIFYGYAMGWYRQAPGKEREFVASINSGVGSTYYADSVKGRFTISRDNAKNTVYLQMNSLKPEDTAVYYCNKVHRSFTYNDGQTPAYDYWGQGTQVTVSS | low polyreactivity
30 | QVQLVESGGGLVQAGGSLRLSCAASGSIFYGYAMGWYRQAPGKERELVAAISSSGGTTYYADSVKGRFTISRDNAKNTVYLQMNSLKPEDTAVYYCAALGGYYYRTRYNGDYWGHGTQVTVSS | high polyreactivity
31 | QVQLVESGGGLVQAGGSLRLSCAASGSIFYGYAMGWYRQAPGKERELVAGISNGGSTNYADSVKGRFTISRDNAKNTVYLQLNSLKPEDTAVYYCNATYYSAYSYLYGYWGQGTQVTVSS | low polyreactivity
32 | QVQLVESGGGLVQAGGSLRLSCAASGSIFYGYAMGWYRQAPGKERELVAVITDGGGSTYYADSVKGRFTISRDNAMNTVYLQMNSLKPEDTAVYYCNRVFPPTDYEFDSWGQGTQLTVSS | low polyreactivity
33 | QVQLVESGGGLVQAGGSLRLSCAASGSIFYGYAMGWYRQAPGTERELVAALSWSDGITYYADSVKGRFTISRDNGKNTGYLQMKNLKPEDTAVYSCAAEYGQYGYDYWGKGTQVTVSS | high polyreactivity
34 | QVQLVESGGGLVQAGGSLRLSCAASGSIFYGYARGWYRQAPGKERELVASITSSGGSTYYADSVKGRFTISRDNAKNTDYLQMNSLKPEDSAVYYCAVIGYHYSAISPPSQTRQGYDYWGQVTQVTVSS | low polyreactivity
35 | QVQLVESGGGLVQAGGSLRLSCAASGSIFYGYDMGWYRQAPGKERELVAAISRSGGSTYYADSVKGRFTISRDNAKNTVYLQMNSLKPEDTAVSYCNAYPVTFVYYVGDGYWGQGTQVTVSS | high polyreactivity
36 | QVQLVESGGGLVQAGGSLRLSCAASGSIFYGYTMGWYRQEPGKERELVAAIRKSGGSTNYADSVKGRFTISRDNAKNTVYLQMNSLKPEDTAVFYCAAAYYRGRGYYWGQGTQVTESS | high polyreactivity
37 | QVQLVESGGGLVQAGGSLRLSCAASGSIFYHNAMGRYRQAPGKERELVAAITGSGGSTYYADAVKGRFTISRDKAKNTVYFQMNSLKPEDTAVYDCAADGYTKWWISWGYDYWGQGTQVTVSS | low polyreactivity
38 | QVQLVESGGGLVQAGGSLRLSCAASGSIFYHNAMGWYRQAPGKERELVAAISSSGGNTYYADSVKGRFTISRDNAKNTVYLQLNSLKPEDTAVYYCNKGFSYRSGRGYWGQGTQVTVSS | high polyreactivity
39 | QVQLVESGGGLVQAGGSLRLSCAASGSIFYHNAMGWYRQAPGKERELVAAITWSGSTTYYADSVKGRFTISRDNAKNTVYLQMKSLKPEDTAVYYCNAGNRHGHYDYWGQGTQVTVSS | low polyreactivity
40 | QVQLVESGGGLVQAGGSLRLSCAASGSIFYHNAMGWYSPAPGKERELVAAISASGSTYYADSVKGRFTISRDNAKNTVSLQMNSLKTEDTAVYYCTFYWYNYWGQGTQVTVSS | high polyreactivity
41 | QVQLVESGGGLVQAGGSLRLSCAASGSIFYHYAMGWYRQAPGKERELVAAISDRGTSTYYADSVKGRFTISRDNAKNTVYLQMNSLKPEDTAVYYCAAEGSLNSFYYSYYYWGQGTQVTVSS | high polyreactivity
42 | QVQLVESGGGLVQAGGSLRLSCAASGSIFYINAMGWYRQAPGKERELVAAITSDGSTYYADSVKGRFTISRDNAKNTVYLQMNSLKPEDTAVYYCAADLTSDQYLYYWYWFYSWGQGTQVTVSS | low polyreactivity
43 | QVQLVESGGGLVQAGGSLRLSCAASGSIFYINDMGWYRQAPGKERELVASINSSGDSTYYADSVKGRFTISRDNAKNTVYLQMNSLKPEDTAVYYCAADDGYPIQEYDYWGQGTQVTVSS | low polyreactivity
